These results are taken from doi:10.1101/2022.10.13.512040 (bioRxiv, 2022).

In data set [1] the target is Arabidopsis thaliana PIN1 (PIN-FORMED 1 auxin transporter) (Arabidopsis thaliana, UniProt Q9C6B8). The experiment in a line: cryo-EM structure.
The data set “cryo-EM structure” deals with the molecule itself. The experiment in a line: cryo-EM structure.

B1: sybody-21 (VHH)
VHH: QVQLVESGGGLVQAGGSLRLSCAASGFPVNISWMEWYRQVPGKEREWVAAIQSTGSYTWYADSVKGRFTISRDNAKNTVYLQMNSLKPEDTAVYYCRVKVGAYYRGQGTQVTVSA
For B1, the binding result in data set [1] was “binds”.

B2: Arabidopsis thaliana PIN1 (PIN-FORMED 1 auxin transporter) (natural protein)
chain: MITAADFYHVMTAMVPLYVAMILAYGSVKWWKIFTPDQCSGINRFVALFAVPLLSFHFIAANNPYAMNLRFLAADSLQKVIVLSLLFLWCKLSRNGSLDWTITLFSLSTLPNTLVMGIPLLKGMYGNFSGDLMVQIVVLQCIIWYTLMLFLFEYRGAKLLISEQFPDTAGSIVSIHVDSDIMSLDGRQPLETEAEIKEDGKLHVTVRRSNASRSDIYSRRSQGLSATPRPSNLTNAEIYSLQSSRNPTPRGSSFNHTDFYSMMASGGGRNSNFGPGEAVFGSKGPTPRPSNYEEDGGPAKPTAAGTAAGAGRFHYQSGGSGGGGGAHYPAPNPGMFSPNTGGGGGTAAKGNAPVVGGKRQDGNGRDLHMFVWSSSASPVSDVFGGGGGNHHADYSTATNDHQKDVKISVPQGNSNDNQYVEREEFSFGNKDDDSKVLATDGGNNISNKTTQAKVMPPTSVMTRLILIMVWRKLIRNPNSYSSLFGITWSLISFKWNIEMPALIAKSISILSDAGLGMAMFSLGLFMALNPRIIACGNRRAAFAAAMRFVVGPAVMLVASYAVGLRGVLLHVAIIQAALPQGIVPFVFAKEYNVHPDILSTAVIFGMLIALPITLLYYILLGL
For the molecule B2, the binding result in “cryo-EM structure” is given as “binds”.
